Source: patent US20220306733A1 (ITEOS BELGUIM, published 2022)
Changes are numbered by the printed parent chain. Names and notes keep the numbering of the source.

T1: human TIGIT on cells (Jurkat-hTIGIT, human primary T cells) (human, UniProt Q495A1 22-244)
T1 sequence (looked up): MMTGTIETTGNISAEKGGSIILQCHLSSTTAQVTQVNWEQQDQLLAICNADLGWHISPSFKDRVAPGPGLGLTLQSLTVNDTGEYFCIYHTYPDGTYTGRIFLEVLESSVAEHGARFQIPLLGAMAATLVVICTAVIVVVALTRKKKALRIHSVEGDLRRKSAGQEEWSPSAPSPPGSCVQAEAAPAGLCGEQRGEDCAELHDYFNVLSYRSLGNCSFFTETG

T2: mouse TIGIT on cells (Jurkat-mTIGIT) (mouse, UniProt P86176 29-249)
T2 construct: whole, on cells
T2 sequence (looked up): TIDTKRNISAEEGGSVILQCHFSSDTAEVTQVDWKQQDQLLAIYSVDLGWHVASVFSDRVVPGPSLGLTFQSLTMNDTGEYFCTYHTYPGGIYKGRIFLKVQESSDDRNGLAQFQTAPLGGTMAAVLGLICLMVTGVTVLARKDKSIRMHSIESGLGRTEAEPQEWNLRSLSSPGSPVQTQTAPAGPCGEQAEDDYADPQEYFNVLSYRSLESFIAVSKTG

B1: comparative anti-TIGIT antibody 4.1D3.Q1E (antibody, human IgG1, V domains shown)
VH: EVQLQQSGPGLVKPSQTLSLTCAISGDSVSSNSAAWNWIRQSPSRGLEWLGKTYYRFKWYSDYAVSVKGRITINPDTSKNQFSLQLNSVTPEDTAVFYCTRESTTYDLLAGPFDYWGQGTLVTVSS
VL: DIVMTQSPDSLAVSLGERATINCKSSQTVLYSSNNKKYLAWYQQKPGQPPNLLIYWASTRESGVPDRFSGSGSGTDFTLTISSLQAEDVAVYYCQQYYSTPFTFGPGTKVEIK
B2: comparative anti-TIGIT antibody 22G2 (antibody, human IgG1, V domains shown)
VH: QVHLQESGPGLVKPSETLSLTCTVSGGSVSSGIYYWSWIRQPPGKGLEWIGYIYYSGSTNYNPSLKSRVTISVDTSKNQFSLKLSSVTAADTAVYYCARDYYVSGNYYNVDYYFFGVDVWGQGTTVTVSS
VL: EIVLTQSPATLSLSPGERATLSCRASQSVSSYLAWYQQKPGQAPRLLIYDASNRATGIPARFSGSGSGTDFTLTISSLEPEDFAVYYCQQRSNWPPLFTFGPGTKVDIK
B3: comparative anti-TIGIT antibody 31C6 (MEB125.31C6.A1.205 VH4/VL1) (antibody, human IgG1, V domains shown)
VH: EVQLVQSGAEVKKPGASVKVSCKASGYTFSSYVMHWVRQAPGQGLEWIGYIDPYNDGAKYAQKFQGRVTLTSDKSTSTVYMELSSLRSEDTAVYYCARGGPYGWYFDVWGQGTTVTVSS
VL: DIQMTQSPSSLSASVGDRVTITCRASEHIYSYLSWYQQKPGKAPKLLIYNAKTLAEGVPSRFSGSGSGTDFTLTISSLQPEDFATYYCQHHFGSPLTFGQGTRLEIK
B4: anti-TIGIT antibody clone 29478 (antibody, V domains shown)
VH: EVQLVESGGGVVQPGRSLRLSCAASGFTFESYGMVWVRQAPGKGLEWVASILYDGSNRYYADSVKGRFTVSRDNSKNTLYLQMNSLRAEDTAVYYCARVSYYYDSVELRWAEYFQHWGQGTLVTVSS
VL: EIVLTQSPATLSLSPGERATLSCRASQSVSSYLAWYQQKPGQAPRLLIYDASKRATGIPARFSGSGSGTDFTLTISSLEPEDFAVYYCQQVHNFPLTFGGGTKVEIK
notes: human IgG; Fab for 'Fab KD' columns
B5: anti-TIGIT antibody clone 26521 (antibody, V domains shown)
VH: QVQLVQSGAEVKKPGSSVKVSCKASGGTFSSYAISWVRQAPGQGLEWMGGIIPIFGTANYAQKFQGRVTITADESTSTAYMELSSLRSEDTAVYYCARLHLGSSAYYGMDVWGQGTTVTVSS
VL: DIQMTQSPSSLSASVGDRVTITCRASQSISSYLNWYQQKPGKAPKLLIYAASSLQSGVPSRFSGSGSGTDFTLTISSLQPEDFATYYCQQRYVFPPTFGGGTKVEIK
notes: Naive parent clone, VH1-69; human IgG; Fab for 'Fab KD' columns
B6: anti-TIGIT antibody clone 29513 (antibody, V domains shown)
VH: B5 VH with S30Q, S31N, G50V, I52V, I70V, S103Q, S104K
VL: B5 VL
notes: as for B4
B7: anti-TIGIT antibody clone 26486 (antibody, V domains shown)
VH: QVQLQESGPGLVKPSETLSLTCAVSGYSISSGYYWAWIRQPPGKGLEWIGSIYHSGSTYYNPSLKSRVTISVDTSKNQFSLKLSSVTAADTAVYYCAIEGANYYDFGYVAFDIWGQGTMVTVSS
VL: EIVMTQSPATLSVSPGERATLSCRASQSVSSNLAWYQQKPGQAPRLLIYGASTRATGIPARFSGSGSGTEFTLTISSLQSEDFAVYYCQQSPPWPRTFGGGTKVEIK
notes: Naive parent clone, VH4-0B; human IgG; Fab for 'Fab KD' columns
B8: anti-TIGIT antibody clone 32931 (antibody, V domains shown)
VH: QLQLQESGPGLVKPSETLSLTCTVSGGSISSGSYYLAWIRQPPGKGLEWIGSIFRSGSTYYNPSLESRVTISVDTSKNQFSLKLSSVTAADTAVYYCAIEGANFKDFGYVAFDIWGQGTTVTVSS
VL: B7 VL with Q27K, G50F, S91T, P92S
notes: L1/L2/L3 optimised from 31288; human IgG
B9: anti-TIGIT antibody clone 32919 (antibody, V domains shown)
VH: B8 VH
VL: B4 VL with K53N, V91E, H92N, N93P, F94R, L96R
notes: as for B8
B10: anti-TIGIT antibody clone 29499 (antibody, V domains shown)
VH: B8 VH with G32S, S33R, L36W, F54G, R55T, E66K, A90T, K105R, T120M
VL: B7 VL
notes: as for B4
B11: anti-TIGIT antibody clone 29494 (antibody, V domains shown)
VH: B8 VH with L2V, T120M
VL: B7 VL
notes: as for B4
B12: anti-TIGIT antibody clone 26493 (antibody, V domains shown)
VH: EVQLVESGGGLVQPGRSLRLSCAASGFTFGDYAMHWVRQAPGKGLEWVSGITWNSGSIGYADSVKGRFTISRDNAKNSLYLQMNSLRAEDTALYYCAKPVPKSRGLDVWGQGTMVTVSS
VL: DIQLTQSPSSVSASVGDRVTITCRASQGISSWLAWYQQKPGKAPKLLIYGASSLQSGVPSRFSGSGSGTDFTLTISSLQPEDFATYYCQQAFYLPWTFGGGTKVEIK
notes: Naive parent clone, VH3-09; human IgG; Fab for 'Fab KD' columns; mouse IgG2a/IgG1 versions only used in vivo / ex vivo; also called surrogate anti-TIGIT antagonistic antibody
B13: anti-TIGIT antibody clone 29523 (antibody, V domains shown)
VH: EVQLVESGGGVVQPGRSLRLSCAASGFTFGSYYMHWVRQAPGKGLEWVAVIWPDGSNKLYADSVKGRFTISRDNSKNTLYLQMNSLRAEDTALYYCAKPVPKSRALDVWGQGTMVTVSS
VL: B12 VL
notes: as for B4
B14: anti-TIGIT antibody clone 29527 (antibody, V domains shown)
VH: B13 VH with E1Q, G30S, Y32S, W52G, P53A, L59Y, K65E, K102R, S103R, A105G
VL: B12 VL
notes: human IgG
B15: anti-TIGIT antibody clone 29520 (antibody, V domains shown)
VH: B12 VH with E1Q, G30R, S57L, K102R, S103L
VL: B12 VL
notes: as for B4

target: T1, human TIGIT on cells (Jurkat-hTIGIT, …); test: cell-based or functional assay

Row | Binder | EC50 (nM), luciferase, Jurkat-hTIGIT + CHO-CD155 [nM] | luciferase induction over isotype control (fold change), Jurkat-hTIGIT + CHO-CD155 [fold]
1 | B1 | 10.3 | 5.8
2 | B2 | 5.2 | 5.3
3 | B3 | 5.3 | 6.7

target: T1, human TIGIT on cells (Jurkat-hTIGIT, …); test: flow cytometry on Jurkat-hTIGIT, 100 nM antibody, vs untransfected Jurkat
Protocol: (§1) Antibodies were incubated with the cells for 20 min at 4° C. in FACS buffer. […] Geometric mean fluorecence intensity was analysed using LSR BD Fortessa. Cell binding was recorded as the median florescence intensity of PE on the transfected line compared to the un-transfected line for each antibody (Table 3).

Row | Binder | Cell binding FON (Fold Over Negative) [fold over negative]
4 | B4 | 182
5 | B5 | 146
6 | B6 | 156
7 | B7 | 143
8 | B8 | 741
9 | B9 | 680
10 | B10 | 164
11 | B11 | 164
12 | B12 | 80
13 | B13 | 150
14 | B14 | 142
15 | B15 | 166

target: T1, human TIGIT on cells (Jurkat-hTIGIT, …); test: cell-based or functional assay; remark: another data set of the same source

Row | Binder | luciferase induction over isotype control (fold change), Jurkat-hTIGIT + CHO-TCR-CD155 bioassay, 133 nM antibody [fold]
16 | B4 | 3.57
17 | B5 | 2.66
18 | B6 | 3.26
19 | B7 | 1.9
20 | B10 | 3.68
21 | B11 | 3.42
22 | B12 | 0.96
23 | B13 | 2.4
24 | B14 | 2.96
25 | B15 | 2.52

target: T1, human TIGIT on cells (Jurkat-hTIGIT, …); test: cell-based or functional assay; remark: another data set of the same source

Row | Binder | EC50 (nM), IFNg, human primary CD8+ T cells + CHO-CD155 [nM] | IFNg induction over isotype control (fold change), human primary CD8+ T cells + CHO-CD155 [fold]
26 | B1 | 1.43 | 2.9
27 | B2 | 0.41 | 1.5
28 | B3 | 0.3 | 1.6

target: T2, mouse TIGIT on cells (Jurkat-mTIGIT); test: flow cytometry on Jurkat-mTIGIT, 100 nM antibody, vs untransfected Jurkat
Protocol: as §1

Row | Binder | Cell binding FON (Fold Over Negative) [fold over negative]
29 | B4 | 500
30 | B5 | 218
31 | B6 | 406
32 | B7 | 199
33 | B10 | 541
34 | B11 | 511
35 | B12 | 463
36 | B13 | 502
37 | B14 | 414
38 | B15 | 535

target: T2, mouse TIGIT on cells (Jurkat-mTIGIT); test: cell-based or functional assay

Row | Binder | IFNg production by mouse OT-1 CD8+ T cells co-cultured with OVA-pulsed PanO2 cells, 133 nM antibody [fold]
39 | B12 | ~2
